Experimental data: publication PMC12430004
Where two headings read alike, the source gives them in different places.

Legend:
Assay in all cases: EMSA
hPNPase E475G [1] = target: T1, hPNPase E475G (Homo sapiens, UniProt Q8TCS8 46-783, E475G)
T1 sequence: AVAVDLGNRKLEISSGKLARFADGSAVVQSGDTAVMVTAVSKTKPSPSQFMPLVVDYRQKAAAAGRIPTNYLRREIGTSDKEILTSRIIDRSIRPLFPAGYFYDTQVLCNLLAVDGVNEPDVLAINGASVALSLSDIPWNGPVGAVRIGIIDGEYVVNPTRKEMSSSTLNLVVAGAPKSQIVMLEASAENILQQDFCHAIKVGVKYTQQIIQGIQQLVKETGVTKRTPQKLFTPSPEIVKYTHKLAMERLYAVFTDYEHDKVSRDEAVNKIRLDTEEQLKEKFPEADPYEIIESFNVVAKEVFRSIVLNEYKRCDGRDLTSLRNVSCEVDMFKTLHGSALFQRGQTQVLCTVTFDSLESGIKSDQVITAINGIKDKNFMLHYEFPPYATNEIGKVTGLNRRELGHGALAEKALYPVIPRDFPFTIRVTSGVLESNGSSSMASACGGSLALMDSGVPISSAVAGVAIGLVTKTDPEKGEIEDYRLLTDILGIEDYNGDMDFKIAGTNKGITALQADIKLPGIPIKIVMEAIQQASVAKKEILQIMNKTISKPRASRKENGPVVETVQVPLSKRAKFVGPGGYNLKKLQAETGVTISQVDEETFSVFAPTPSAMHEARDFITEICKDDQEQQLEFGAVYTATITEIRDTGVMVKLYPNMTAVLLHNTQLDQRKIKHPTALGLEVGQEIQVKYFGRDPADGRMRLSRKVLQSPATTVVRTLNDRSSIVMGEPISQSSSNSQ

hPNPase P140L = target: T2, hPNPase P140L (Homo sapiens, UniProt Q8TCS8 46-783, P140L)
T2 sequence: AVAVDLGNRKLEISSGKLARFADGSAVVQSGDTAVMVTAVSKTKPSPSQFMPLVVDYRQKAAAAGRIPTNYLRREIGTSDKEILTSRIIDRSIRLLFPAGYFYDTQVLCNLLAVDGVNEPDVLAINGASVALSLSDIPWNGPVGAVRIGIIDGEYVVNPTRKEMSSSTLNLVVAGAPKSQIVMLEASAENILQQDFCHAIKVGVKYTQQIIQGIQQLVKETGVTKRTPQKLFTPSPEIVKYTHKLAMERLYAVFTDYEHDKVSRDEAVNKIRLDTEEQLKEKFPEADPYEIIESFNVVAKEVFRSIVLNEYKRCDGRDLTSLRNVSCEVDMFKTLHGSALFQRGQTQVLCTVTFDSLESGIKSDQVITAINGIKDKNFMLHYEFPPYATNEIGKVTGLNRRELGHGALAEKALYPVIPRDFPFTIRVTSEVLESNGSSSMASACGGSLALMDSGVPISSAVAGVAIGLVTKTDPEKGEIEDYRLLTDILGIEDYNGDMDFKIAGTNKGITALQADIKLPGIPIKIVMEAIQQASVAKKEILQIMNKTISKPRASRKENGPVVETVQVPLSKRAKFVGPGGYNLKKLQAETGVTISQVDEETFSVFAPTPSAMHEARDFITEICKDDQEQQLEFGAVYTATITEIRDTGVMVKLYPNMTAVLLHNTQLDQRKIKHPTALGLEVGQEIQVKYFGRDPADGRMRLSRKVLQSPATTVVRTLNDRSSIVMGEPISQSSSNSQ

hPNPase Q387R [2] = target: T3, hPNPase Q387R (Homo sapiens, UniProt Q8TCS8 46-783, Q387R)
T3 sequence: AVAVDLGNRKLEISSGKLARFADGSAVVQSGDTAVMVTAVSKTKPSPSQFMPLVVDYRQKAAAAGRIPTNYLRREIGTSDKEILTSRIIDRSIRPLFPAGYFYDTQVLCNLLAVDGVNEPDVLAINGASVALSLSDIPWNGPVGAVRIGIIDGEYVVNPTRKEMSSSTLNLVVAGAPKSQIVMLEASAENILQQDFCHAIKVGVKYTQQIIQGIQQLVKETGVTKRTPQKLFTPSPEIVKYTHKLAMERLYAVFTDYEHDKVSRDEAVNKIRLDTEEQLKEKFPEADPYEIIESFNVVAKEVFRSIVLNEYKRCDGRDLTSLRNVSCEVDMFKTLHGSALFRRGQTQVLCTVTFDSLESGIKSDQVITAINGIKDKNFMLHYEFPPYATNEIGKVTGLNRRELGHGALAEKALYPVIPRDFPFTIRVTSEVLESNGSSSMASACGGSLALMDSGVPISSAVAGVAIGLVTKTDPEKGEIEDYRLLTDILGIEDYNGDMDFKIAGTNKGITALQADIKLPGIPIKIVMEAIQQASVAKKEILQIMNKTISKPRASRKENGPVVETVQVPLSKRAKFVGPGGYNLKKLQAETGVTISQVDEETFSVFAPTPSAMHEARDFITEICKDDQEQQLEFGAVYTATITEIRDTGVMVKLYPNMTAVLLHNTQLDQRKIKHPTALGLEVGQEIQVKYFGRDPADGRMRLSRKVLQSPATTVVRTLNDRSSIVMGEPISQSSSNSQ

hPNPase E475G [3] = target: T1, hPNPase E475G; remark: listed apart in the source
hPNPase Q387R [4] = target: T3, hPNPase Q387R; remark: listed apart in the source

Binder | binding result (hPNPase E475G [1]) | binding result (hPNPase P140L) | binding result (hPNPase Q387R [2]) | binding result (hPNPase E475G [3]) | binding result (hPNPase Q387R [4])
ACTGGACAAATACTCCGACG (ssDNA) [DNA20] | no binding | no binding | no binding |  | 
ACUGGACAAAUACUCCGACG (ssRNA) [RNA20] |  |  |  | no binding | no binding
